Laboratory results published in US20250250357A1 (NANJING ZAIMING PHARMACEUTICAL, published 2025).
Where a chain is given by its changes, count along the chain named.

T1: human MSLN-R1-his protein (human, UniProt Q13421 296-390)
T1 construct: Made in HEK293E cells, purified on nickel column; also called hMSLN-R1-his; human MSLN-R1 protein; not shown: His tag
T1 chain: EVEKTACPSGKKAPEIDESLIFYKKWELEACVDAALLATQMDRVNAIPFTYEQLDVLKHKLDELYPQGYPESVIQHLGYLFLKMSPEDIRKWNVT

T2: monkey MSLN on HEK293T-monkey MSLN recombinant cells (monkey)
T2 construct: Full-length precursor as transfected; processing on the cell is not described; also called HEK293-monkey MSLN
T2 chain: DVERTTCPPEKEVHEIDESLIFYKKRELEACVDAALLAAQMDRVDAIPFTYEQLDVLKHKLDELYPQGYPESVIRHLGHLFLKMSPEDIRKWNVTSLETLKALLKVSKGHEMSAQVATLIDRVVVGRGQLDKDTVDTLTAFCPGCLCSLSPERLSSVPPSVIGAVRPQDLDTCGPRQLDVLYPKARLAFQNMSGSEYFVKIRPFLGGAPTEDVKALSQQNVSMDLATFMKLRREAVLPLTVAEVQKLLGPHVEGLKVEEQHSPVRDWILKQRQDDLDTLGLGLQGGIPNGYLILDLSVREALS

B1: S009-F7.18.10 chimeric antibody (antibody, human IgG1, kappa, V domains shown)
VH: QVQLQQSGAELVRPGTSVKVSCKASGYAFTNYLIEWVKQRPGQGLEWIGVINPGSGGTKYNEKFKGKATLTADKSSSTAYMQLSSLTSEDSAVYFCASDYDYDPFAYWGQGTLVTVSA
VL: DIVMTQSHKFMSTSVGDRVSITCKASQDVSTAVAWYQRKPGQSPKLLIYWASTRHTGVPDRFTGSGSGTDYTLTISYMQAEDLALYYCQQHYSTPYTFGGGTKLEIKR
notes: Human-murine chimeric antibody, human IgG1/kappa constant regions
B2: S009-F7.11.11 chimeric antibody (antibody, human IgG1, kappa, V domains shown)
VH: EVQLQQSGPELVKPGASVKIPCKASGYTITDYNMDWVKQSRGKSLEWIGDVFPYNGDSIYNQKFEGRATLTVDKYSSTAYMELRGLTSEDTAVYFCARRKTGTGYFDVWGTGTTVTVSS
VL: QLVLTQSPAIMSASPGEKVTLTCSASSSVSSTYLSWYLQKPGSSPKLWIYSTSNLASGVPARFSGSGSGTSYSLTISSMEAEDAASYFCHQWSSYPYTFGGGTKLEIKR
notes: as for B1
B3: S009-F7.12.13 chimeric antibody (antibody, human IgG1, kappa, V domains shown)
VH: EVQLQQSGPELVKPGASVKIPCKASGYTFTDYNMDWVKQSHGKGLEWIGDINPNTDDTIYNQKFNGKATLTVDKSSSTAYMELRSLTSEDTAVYYCSRRLIGTGYFDVWGTGTTVTVSS
VL: B2 VL with L2I, S30I, S35C, L38R, K46E, S94N, E106G, I107M
notes: as for B1
B4: S009-F7.21.16 chimeric antibody (antibody, human IgG1, kappa, V domains shown)
VH: QVQLQQPGTELVKPGASVKLSCKASGYTFTTFWMHWVKQRPGQGLEWIGGVNPTNGGTNYNEKFRTKATLTVDKSSTTADMQLSSLTSEDSAVYYCAPHYISSRPGFAYWGQGTLVTVSG
VL: DIVMTQSQKFMSTSGGDRVSVTCKASQNVGTNVAWYQQKPGQSPKALIYSASYRYSGVPDRFTGSGSGTDFILTISNVQSEDLAEYFCQQYNSYPLTFGGGTKLEIKR
notes: as for B1
B5: S009-F7.26.15 chimeric antibody (antibody, human IgG1, kappa, V domains shown)
VH: DVQLQESGPGLVKPSQTVFLTCTVTGISITTGNYRWSWIRQFPGNKLEWIGYIYYTGFITYNPSLTSRTTITRDTPKNQFFLEMKSLTAEDTATYYCARDDYDYDVFAYWGQGTLVTVSA
VL: DIQMTQSPASLSASVGETVTITCRASGNIHNYLAWYHQKQGKSPQFLVYKAKTLADGVPSRFSGSGSGTQYSLKINRLQPEDFGSYYCQHFLSIPLTFGAGTKLELKR
notes: as for B1
B6: S009-F7.6.17 chimeric antibody (antibody, human IgG1, kappa, V domains shown)
VH: QVQLQQSGAELARPGASVKMSCKASGYTFTTYTMHWVKQRPGQGLEWIGYISPTGDFTKYNQKFKDKATLTTDKSSNTAFMQLSSLTSEDSAVYYCARWNGTVWFAYWGQGTLVTVSA
VL: DIVMTQSQKFMSTSVGDRVTVTCKASQALGTNVAWYQQKPGQSPKVLIYSASYRYSGVPYRFAGGGSGTDFTLTITNVQSEDLAEYFCQQYNNYPLTFGAGTKLELKR
notes: as for B1
B7: S009-F7.23.19 chimeric antibody (antibody, human IgG1, kappa, V domains shown)
VH: EVKLVESGGGLVQPGGSLSLSCAASGFTFTDYYMSWVRQPPGKALEWLGFIRSKANAYTTEYSASVKGRFTISRDNSQSILYLQMNDLRAEDSATYYCARYYYYGSGYVWYFDVWGTGTTVTVSS
VL: B4 VL with G15V, N28S, S43F, I72T, S76I, G100A, I106L
notes: as for B1
B8: S009-F7.2.3 chimeric antibody (antibody, human IgG1, kappa, V domains shown)
VH: ELQLVESGGDLVKPGGSLKLSCAASGFTFSSNGMSWLRQTPDKRLEWVATISSGGRYTYYPDSVKGRFTISRDNAKNTLYLQMSSLKSEDTAMYYCARRGIYDYFDCWGQGTTLTVSS
VL: DIQMTQSPASLSISVGETVTITCRASENIHSSLAWYQQKQGKSPQLLVYAATNLADGVPSRFSGSGSGSQYSLKINSLQSEDFGTYYCQHFWGTPWTFGGGTKLDIKR
notes: as for B1
B9: F3.80.22-H10 (scFv, not shown: small tags and cut ends)
scFv: DIVMTQTPLSLPVTPGEPASISCRSSQSLEHNNGNTYLHWFLHKPGQSPQLLIYKVSNRFSGVPDRFSGSGSGTDFTLKISRVEAEDVGVYYCSQSTHVPFTFGQGTKLEIKGGGGSGGGGSGGGGSEVQLVQSGAEVKKPGATVKISCKASGYTFTDYEIHWVQQAPGKGLEWMGAFDPEIGGSAYNQKFKDRVTITADKSTSTAYMELSSLRSEDTAVYYCTDYYGSSSGYFDVWGQGTTVTVSS
notes: also called S009-F3.80.22 humanized antibody VL2 + VH2

target: T3, human MSLN-FL-his protein (human, UniProt Q13421 296-580); test: ELISA, coated antigen, antibody 0.02 nM
T3 construct: Made in HEK293E cells, purified on nickel column; also called hMSLN-FL-his; human MSLN full-length protein; not shown: His tag
Target sequence in this assay (Q13421 other isoform, or with tags, fused parts or gaps): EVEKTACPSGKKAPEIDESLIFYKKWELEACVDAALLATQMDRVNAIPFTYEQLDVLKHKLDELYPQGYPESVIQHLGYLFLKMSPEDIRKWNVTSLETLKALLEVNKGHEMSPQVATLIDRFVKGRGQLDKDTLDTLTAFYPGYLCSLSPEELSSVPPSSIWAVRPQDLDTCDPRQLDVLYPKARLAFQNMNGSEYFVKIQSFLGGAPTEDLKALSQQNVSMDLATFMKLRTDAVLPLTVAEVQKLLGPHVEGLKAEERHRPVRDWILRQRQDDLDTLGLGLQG

Row | OD450 | Binder
1 | 1.91 | B1
2 | 0.41 | B2
3 | 1.44 | B3
4 | 1.39 | B4
5 | 1.76 | B5
6 | 1.78 | B6
7 | 1.32 | B7
8 | 1.28 | B8

target: T3, human MSLN-FL-his protein; test: ELISA, coated antigen, antibody 0.2 nM

Row | OD450 | Binder
9 | 2.33 | B1
10 | 1.54 | B2
11 | 2.14 | B3
12 | 2.15 | B4
13 | 2.33 | B5
14 | 2.4 | B6
15 | 2.22 | B7
16 | 2.3 | B8

Target: T1, human MSLN-R1-his protein
Test: ELISA, coated antigen, antibody 0.0002 nM

Row | OD450 | Binder
17 | 0.38 | B1
18 | 0.05 | B2
19 | 0.05 | B3
20 | 0.04 | B4
21 | 0.04 | B5
22 | 0.05 | B6
23 | 0.05 | B7
24 | 0.06 | B8

Target: T1, human MSLN-R1-his protein
Test: ELISA, coated antigen, antibody 0.02 nM

Row | OD450 | Binder
25 | 2.05 | B1
26 | 0.05 | B2
27 | 0.05 | B3
28 | 0.05 | B4
29 | 0.05 | B5
30 | 0.05 | B6
31 | 0.05 | B7
32 | 0.06 | B8

Target: T1, human MSLN-R1-his protein
Test: ELISA, coated antigen, antibody 20 nM

Row | OD450 | Binder
33 | 2.45 | B1
34 | 0.06 | B2
35 | 0.06 | B3
36 | 0.06 | B4
37 | 0.06 | B5
38 | 0.06 | B6
39 | 0.05 | B7
40 | 0.08 | B8

target: T4, human MSLN-hFc recombinant protein (human, UniProt Q13421 296-580); test: SPR (Biacore 8K), MSLN-hFc captured, antibody injected
T4 construct: Captured by an anti-human IgG antibody on the chip; also called human MSLN protein; Acro MSN-H5253
T4 sequence (Q13421 other isoform, or with tags, fused parts or gaps): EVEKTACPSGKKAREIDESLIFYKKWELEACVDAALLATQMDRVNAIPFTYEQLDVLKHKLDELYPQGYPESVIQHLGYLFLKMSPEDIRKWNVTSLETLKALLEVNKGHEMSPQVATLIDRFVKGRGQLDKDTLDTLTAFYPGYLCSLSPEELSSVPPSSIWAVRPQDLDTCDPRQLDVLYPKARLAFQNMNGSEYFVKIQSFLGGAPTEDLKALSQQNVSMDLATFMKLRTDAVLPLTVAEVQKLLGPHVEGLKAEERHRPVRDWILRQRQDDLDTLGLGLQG

Row | Kd | koff | kon | Binder
41 | 0.0209 µM | 0.000177 s⁻¹ | 8470 M⁻¹ s⁻¹ | B9

target: T3, human MSLN-FL-his protein; test: ELISA, coated antigen, antibody 20 nM

Row | OD450 | Binder
42 | 2.29 | B1
43 | 2.35 | B2
44 | 2.19 | B3
45 | 2.46 | B4
46 | 2.52 | B5
47 | 2.49 | B6
48 | 2.46 | B7
49 | 2.5 | B8

Target: T1, human MSLN-R1-his protein
Test: ELISA, coated antigen, antibody 2 nM

Row | OD450 | Binder
50 | 2.45 | B1
51 | 0.05 | B2
52 | 0.05 | B3
53 | 0.05 | B4
54 | 0.05 | B5
55 | 0.05 | B6
56 | 0.05 | B7
57 | 0.08 | B8

Target: T1, human MSLN-R1-his protein
Test: ELISA, coated antigen, no antibody (blank)

Row | OD450 | Binder
58 | 0.08 | B1
59 | 0.07 | B2
60 | 0.06 | B3
61 | 0.07 | B4
62 | 0.06 | B5
63 | 0.07 | B6
64 | 0.06 | B7
65 | 0.07 | B8

target: T3, human MSLN-FL-his protein; test: ELISA, coated antigen, antibody 0.002 nM

Row | OD450 | Binder
66 | 0.97 | B1
67 | 0.16 | B2
68 | 0.6 | B3
69 | 0.82 | B4
70 | 0.91 | B5
71 | 0.84 | B6
72 | 0.41 | B7
73 | 0.41 | B8

target: T3, human MSLN-FL-his protein; test: ELISA, coated antigen, antibody 0.0002 nM

Row | OD450 | Binder
74 | 0.31 | B1
75 | 0.08 | B2
76 | 0.15 | B3
77 | 0.35 | B4
78 | 0.25 | B5
79 | 0.22 | B6
80 | 0.11 | B7
81 | 0.15 | B8

target: T3, human MSLN-FL-his protein; test: ELISA, coated antigen, antibody 2 nM

Row | OD450 | Binder
82 | 2.28 | B1
83 | 2.13 | B2
84 | 2.21 | B3
85 | 2.31 | B4
86 | 2.43 | B5
87 | 2.34 | B6
88 | 2.4 | B7
89 | 2.5 | B8

target: T3, human MSLN-FL-his protein; test: ELISA, coated antigen, antibody 200 nM

Row | OD450 | Binder
90 | 2.4 | B1
91 | 2.62 | B2
92 | 2.65 | B3
93 | 2.42 | B4
94 | 2.39 | B5
95 | 2.75 | B6
96 | 2.5 | B7
97 | 2.91 | B8

target: T3, human MSLN-FL-his protein; test: ELISA, coated antigen, no antibody (blank)

Row | OD450 | Binder
98 | 0.07 | B1
99 | 0.08 | B2
100 | 0.06 | B3
101 | 0.08 | B4
102 | 0.06 | B5
103 | 0.08 | B6
104 | 0.06 | B7
105 | 0.06 | B8

target: T5, human MSLN-R3 on HEK293T-hMSLN-R3 recombinant cells (human, UniProt Q13421 487-606); test: FACS, HEK293T-hMSLN-R3 cells
T5 construct: the C-terminal limit is uncertain; also called human MSLN-R3 membrane protein
T5 sequence (Q13421 495-614): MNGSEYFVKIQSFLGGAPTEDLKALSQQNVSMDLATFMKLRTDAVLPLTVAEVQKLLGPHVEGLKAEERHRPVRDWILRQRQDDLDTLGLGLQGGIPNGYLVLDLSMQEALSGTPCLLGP

Row | EC50 | Maximum_MFI | Binder
106 | 0.00199 µM | 1800 MFI | B9

Target: T1, human MSLN-R1-his protein
Test: ELISA, coated antigen, antibody 0.002 nM

Row | OD450 | Binder
107 | 1.17 | B1
108 | 0.05 | B2
109 | 0.05 | B3
110 | 0.05 | B4
111 | 0.05 | B5
112 | 0.05 | B6
113 | 0.05 | B7
114 | 0.06 | B8

Target: T2, monkey MSLN on HEK293T-monkey MSLN …
Test: FACS, HEK293T-monkey MSLN cells

Row | Maximum_MFI | binding result | Binder
115 | 381 MFI | no binding | B9

Target: T1, human MSLN-R1-his protein
Test: ELISA, coated antigen, antibody 0.2 nM

Row | OD450 | Binder
116 | 2.46 | B1
117 | 0.05 | B2
118 | 0.05 | B3
119 | 0.05 | B4
120 | 0.05 | B5
121 | 0.05 | B6
122 | 0.05 | B7
123 | 0.06 | B8

Target: T1, human MSLN-R1-his protein
Test: ELISA, coated antigen, antibody 200 nM

Row | OD450 | Binder
124 | 2.77 | B1
125 | 0.06 | B2
126 | 0.06 | B3
127 | 0.17 | B4
128 | 0.12 | B5
129 | 0.08 | B6
130 | 0.08 | B7
131 | 0.1 | B8
